Assay in all cases: SPR
Assay [1] concerns the target 16E6L/V (C-terminal peptide of HPV16 early protein E6 with L158V) (human papilloma virus 16).
For assay [2] the target is unchanged. The source holds these as a separate data set.
Assay [3] shares this target. The source holds these as a separate data set.
Assay [4] has the same target. This is another data set of the same source.

Data on 4 substances can be found in paper PMC3206016, “Putting into Practice Domain-Linear Motif Interaction Predictions for Exploration of Protein Networks” (PLoS ONE, 2011).

Where two headings read alike, the source gives them in different places.

Chain of MAGI1-2/6 (MBP fusion of the second of the six PDZ domains of MAGI1) (Q6RHR9 448-572): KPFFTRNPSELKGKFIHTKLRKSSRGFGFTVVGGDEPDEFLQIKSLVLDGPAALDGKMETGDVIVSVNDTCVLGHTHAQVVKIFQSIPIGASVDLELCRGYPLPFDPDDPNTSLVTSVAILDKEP
Chain of MAGI1-3/6 (MBP fusion of the third of the six PDZ domains of MAGI1) (Q6RHR9 613-752): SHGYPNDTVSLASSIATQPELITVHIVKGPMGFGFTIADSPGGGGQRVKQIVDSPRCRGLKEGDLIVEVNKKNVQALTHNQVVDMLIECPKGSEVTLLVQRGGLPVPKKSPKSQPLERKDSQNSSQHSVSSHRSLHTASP
Chain of SCRIB-3/4 (MBP fusion of the third of the four PDZ domains of SCRIB) (Q14160 997-1093): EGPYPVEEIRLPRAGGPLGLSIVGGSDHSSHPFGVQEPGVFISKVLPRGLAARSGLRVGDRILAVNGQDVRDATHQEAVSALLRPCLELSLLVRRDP
Chain of SCRIB-34/4 (MBP fusion of the tandem of the third and fourth PDZ domains of SCRIB) (Q14160 997-1193): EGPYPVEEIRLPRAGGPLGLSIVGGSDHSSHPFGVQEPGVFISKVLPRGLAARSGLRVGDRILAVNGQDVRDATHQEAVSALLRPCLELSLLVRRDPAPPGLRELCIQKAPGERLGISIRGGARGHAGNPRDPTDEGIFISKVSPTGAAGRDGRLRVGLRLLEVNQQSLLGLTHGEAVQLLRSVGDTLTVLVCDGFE

Take “MAGI1-2/6 (MBP fusion of the second of the six PDZ domains of MAGI1) (from UniProt Q6RHR9-1 448-572) (domain or fragment)”: the Kd was determined as 1 µM in assay [1], 2 µM in assay [2] and 18 µM in assay [3].

For “MAGI1-3/6 (MBP fusion of the third of the six PDZ domains of MAGI1) (from UniProt Q6RHR9-1 613-752) (domain or fragment)”, the Kd in assay [1] was determined as 202 µM; in assay [2], 69 µM; in assay [3], 76 µM.

For “SCRIB-3/4 (MBP fusion of the third of the four PDZ domains of SCRIB) (from UniProt Q14160-1 997-1093) (domain or fragment)”, the dissociation constant (Kd) in assay [1] was found to be 32 µM; in assay [2] it was 18 µM; in assay [3], 41 µM.

For the substance “SCRIB-34/4 (MBP fusion of the tandem of the third and fourth PDZ domains of SCRIB) (from UniProt Q14160-1 997-1193) (domain or fragment)”, the figures for the Kd in assay [4] and in assay [2] were 4 µM and 3 µM, respectively.
